Measured values from publication doi:10.1101/2020.06.26.173310 (bioRxiv, 2020).
Like-named read-outs stand apart in the source and are kept apart here.

B1: response regulator from Agrobacterium fabrum (AtRR) (natural protein, Agrobacterium fabrum strain C58)
chain: MPELRPILLVEDNPRDLELTLTALEKCQLANEVVVARDGTEALDYLNVTGSHHNRPGGDPAVVLLDLKLPKVDGLEVLQTVKGSDHLRHIPVVMLTSSREEQDLVKSYELGVNAFVVKPVEFNQFFKAIQDLGVFWALLNE
B2: bacteriophytochrome from Deinococcus radiodurans (DrBphP) (natural protein, Deinococcus radiodurans strain R1, UniProt Q9RZA4 1-755, looked up)
chain: MSRDPLPFFPPLYLGGPEITTENCEREPIHIPGSIQPHGALLTADGHSGEVLQMSLNAATFLGQEPTVLRGQTLAALLPEQWPALQAALPPGCPDALQYRATLDWPAAGHLSLTVHRVGELLILEFEPTEAWDSTGPHALRNAMFALESAPNLRALAEVATQTVRELTGFDRVMLYKFAPDATGEVIAEARREGLHAFLGHRFPASDIPAQARALYTRHLLRLTADTRAAAVPLDPVLNPQTNAPTPLGGAVLRATSPMHMQYLRNMGVGSSLSVSVVVGGQLWGLIACHHQTPYVLPPDLRTTLEYLGRLLSLQVQVKEAADVAAFRQSLREHHARVALAAAHSLSPHDTLSDPALDLLGLMRAGGLILRFEGRWQTLGEVPPAPAVDALLAWLETQPGALVQTDALGQLWPAGADLAPSAAGLLAISVGEGWSECLVWLRPELRLEVAWGGATPDQAKDDLGPRHSFDTYLEEKRGYAEPWHPGEIEEAQDLRDTLTGALGERLSVIRDLNRALTQSNAEWRQYGFVISHHMQEPVRLISQFAELLTRQPRAQDGSPDSPQTERITGFLLRETSRLRSLTQDLHTYTALLSAPPPVRRPTPLGRVVDDVLQDLEPRIADTGASIEVAPELPVIAADAGLLRDLLLHLIGNALTFGGPEPRIAVRTERQGAGWSIAVSDQGAGIAPEYQERIFLLFQRLGSLDEALGNGLGLPLCRKIAELHGGTLTVESAPGEGSTFRCWLPDAGPLPGAADA
modifications: biliverdin IXα chromophore, thioether linkage to the conserved cysteine within the PAS domain

Experiments:
SEC [1] = biological target: the molecule itself; experiment: SEC
SEC [2] = biological target: the molecule itself; experiment: SEC; remark: listed apart in the source

Protein	stoichiometry N (SEC [1])	stoichiometry N (SEC [2])
B1	2	–
B2	–	2
